Results published in patent US20100221240A1, “Chemically Modified Peptide Analogs” (FRAUNHOFER-GESELLSCHAFT ZUR FORDERUNG DER ANGEWANDTEN …, priority 2004, published 2010).

What was measured:
[1] = Nyholm B. et al. 2001; cited from earlier work
[2] = ThT binding assay of the fibrile formation potential of the peptides alone; format: physicochemical; details: 2% HFIP, 10 mM tris, pH 7.4
Description: b) Amyloid fibriles from various protein species bind to the dye ThT and result in an increase in the maximum fluorescence emission of the […]. The ThT binding is therefore a specific test widely used for quantifying amyloid fibriles. This test was used to determine the amyloid formation potential of the analogs compared to IAPP. For this test the analogs and IAPP were incubated at a concentration of 62.5 μm [sic; μM] (2% HFIP, 10 mM tris, pH 7.4). […] aliquots from these incubations were combined with […] of a 5 μM ThT solution (in 0.1 M glycine-NaOH buffer, pH 8.5), mixed, and after excitation at 450 nm the emission from the solution was determined at 485 nm. It was shown that IAPP forms fibriles at a concentration of 625 nM.

[3] = EM analysis of peptide solutions for fibriles; format: physicochemical; details: 5 μM, 10 mM sodium phosphate buffer pH 7.4, 1% HFIP, approximately 20 h at RT
Description: c) For EM analyses, 5-μM solutions of the analogs versus IAPP (in 10 mM sodium phosphate buffer, pH 7.4, containing 1% HFIP) were incubated for approximately 20 h at RT. 10 μL of the solutions was then applied to EM plates, and after dyeing with 1% uranyl acetate as described in Kayed, J. Mol. Biol. (1999) 287, 781-796 was analyzed for the presence of fibriles by means of EM.

[4] = Sedimentation test (solubility; BCA protein determination of pellet and supernatant); format: physicochemical; details: pH 7.4
Description: a) The sedimentation test was used to investigate the solubility of the analogs compared to IAPP. The quantity of precipitated or soluble peptide was determined as a function of time. In one typical experiment, first a peptide solution at a given concentration (1, 10, or 100 μM) in 10 mM sodium phosphate buffer, pH 7.4 was prepared. Aliquots of this solution were centrifuged at specified times (20200 g, 20 min), and precipitated protein in the pellet and supernatant was quantified using the bicinchonic acid (BCA) protein determination assay. FIG. 1 illustrates several results from this test. […] After 20 h IAPP was completely precipitated; in contrast, the N-methylated IAPP-LA [sic; IAPP-AL], IAPP-GI, and IAPP-AF [sic; IAPP-FA] analogs remained soluble over 14 days, even at a concentration of 100 μM. IAPP completely precipitated after only 2 h under the latter-referenced conditions (100 μM).

[5] = biological target: T1, IAPP receptor on MCF-7 cells (Homo sapiens, UniProt P30988); experiment: Stability in solution: preservation of AC activation potential (hormonal activity) on storage; format: cell-based; details: 250 μM or 1 mg/mL, sodium phosphate pH 7.4, RT, 4 days; 1 μM end concentration on cells
T1 construct: Specific IAPP receptors are expressed in the MCF-7 cell line; endogenous in cells; host or cells: MCF-7 (human breast cancer cells)
T1 sequence (P30988 25-474): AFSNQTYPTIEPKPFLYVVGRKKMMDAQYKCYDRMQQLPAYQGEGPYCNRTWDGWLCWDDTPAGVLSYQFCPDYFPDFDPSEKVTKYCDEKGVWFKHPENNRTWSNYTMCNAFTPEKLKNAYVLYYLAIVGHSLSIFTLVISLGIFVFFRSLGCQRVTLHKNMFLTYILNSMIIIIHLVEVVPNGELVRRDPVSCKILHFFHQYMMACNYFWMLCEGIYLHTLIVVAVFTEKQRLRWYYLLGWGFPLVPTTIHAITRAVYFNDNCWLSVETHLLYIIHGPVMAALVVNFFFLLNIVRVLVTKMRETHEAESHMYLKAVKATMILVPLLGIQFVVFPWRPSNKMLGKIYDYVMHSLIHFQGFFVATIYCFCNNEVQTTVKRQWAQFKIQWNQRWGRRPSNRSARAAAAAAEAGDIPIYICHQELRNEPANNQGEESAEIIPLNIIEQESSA
Description: To [determine] the potential applicability of the analogs as an IAPP or pramlintide replacement in the treatment of diabetes and/or other diseases, the stability of the solutions of the analogs and thus their hormonal activity in comparison to readily aggregating IAPP was investigated. In one typical assay, aqueous solutions of IAPP, IAPP-AL, IAPP-GI, or 1:1 mixtures of the analogs with IAPP (250 μM or 1 mg/mL) in […] sodium phosphate, pH 7.4, were used at RT and incubated for 4 days. The AC activation potential of these solutions was determined at various times, e.g., at times 0, 48 h, and 96 h, by means of the AC activation assay described above (end concentration in the cells was 1 μM, corresponding to maximum activation) (FIG. 9).

IAPP = biological target: T2, IAPP (Homo sapiens, UniProt P10997); experiment: EM-tracked aggregation test of IAPP in 1:1 mixture with analogs; format: biochemical; details: IAPP 5 μM alone or 1:1 with analog, 10 mM sodium phosphate pH 7.4, 1% HFIP, 20 h
T2 construct: Natural human IAPP
T2 sequence (P10997 34-70 limits assumed): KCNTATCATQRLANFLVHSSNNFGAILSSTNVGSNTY
Description: In one typical aggregation test tracked by EM, IAPP (5 μM) was incubated alone or in the presence of one of the analogs, in a 1:1 ratio (in 10 mM sodium phosphate buffer, pH 7.4, containing 1% HFIP). After 20 h, 10 μL of the solution was applied to an EM plate, and after dyeing with 1% uranyl acetate as described in Kayed, J. Mol. Biol. (1999) 287, 781-796 was analyzed for the presence of fibriles by means of EM.

[6] = 10 μM in 10 mM sodium phosphate buffer

| Compound | pH values at which the peptide tends to aggregate [1] | concentration at which fibriles form [2] [µM] | presence of fibriles by EM [3] | onset of aggregation [4, 6] | time after which peptide was completely precipitated [4, 6] [h] | time after which peptide was completely precipitated ([4]; 100 μM in 10 mM sodium phosphate buffer) [h] | hormonal activity (AC activation potential) after storage in solution [5] | fibrile formation by EM (IAPP) |
| --- | --- | --- | --- | --- | --- | --- | --- | --- |
| CC[C@H](C)[C@H](NC(=O)[C@@H]1CCCN1C(=O)CNC(=O)[C@H](Cc1ccccc1)NC(=O)[C@H](CC(N)=O)NC(=O)[C@H](CC(N)=O)NC(=O)[C@H](CO)NC(=O)[C@H](CO)NC(=O)[C@H](Cc1c[nH]cn1)NC(=O)[C@@H](NC(=O)[C@H](CC(C)C)NC(=O)[C@H](Cc1ccccc1)NC(=O)[C@H](CC(N)=O)NC(=O)[C@H](C)NC(=O)[C@H](CC(C)C)NC(=O)[C@H](CCCNC(=N)N)NC(=O)[C@H](CCC(N)=O)NC(=O)[C@@H](NC(=O)[C@H](C)NC(=O)[C@@H]1CSSC[C@H](NC(=O)[C@@H](N)CCCCN)C(=O)N[C@@H](CC(N)=O)C(=O)N[C@@H]([C@@H](C)O)C(=O)N[C@@H](C)C(=O)N[C@@H]([C@@H](C)O)C(=O)N1)[C@@H](C)O)C(C)C)C(=O)N[C@@H](CC(C)C)C(=O)N1CCC[C@H]1C(=O)N1CCC[C@H]1C(=O)N[C@H](C(=O)N[C@@H](CC(N)=O)C(=O)N[C@H](C(=O)NCC(=O)N[C@@H](CO)C(=O)N[C@@H](CC(N)=O)C(=O)N[C@H](C(=O)N[C@@H](Cc1ccc(O)cc1)C(N)=O)[C@@H](C)O)C(C)C)[C@@H](C)O [pramlintide] | above 5 | – | – | – | – | – | – | – |
| Natural human IAPP (KCNTATCATQRLANFLVHSSNNFGAILSSTNVGSNTY; listed as Homo sapiens) [peptide hormone of 37 amino acids] | – | 0.625 | composed primarily of IAPP amyloid fibriles | began immediately after the solution was prepared | 20 | 2 | may lose more than half of its original hormonal activity | composed primarily of IAPP amyloid fibriles |
